This note sets out measurements from PMC11665464.

For assay [1], the target named is ALYREF-ΔNC, with the N- and C-terminal UAP56-binding motifs (UBMs) deleted (human) (UniProt Q86V81).
The target is the same in assay [2]. The assay can be described thus: pull-down; Nickel-NTA affinity pull-down: 2 ug His6-tagged ALYREF or variant with 4 ug UAP56 in 30 ul K buffer (20 mM KH2PO4 pH 7.4, 10% glycerol, 0.5 mM EDTA, 0.01% Igepal, 1 mM DTT) with 200 mM KCl and 15 mM imidazole, 30 min at 4 °C; captured on Ni-NTA resin, eluted with 2% SDS; SDS-PAGE, Coomassie stain.

Chain of UAP56 (Q13838 whole entry): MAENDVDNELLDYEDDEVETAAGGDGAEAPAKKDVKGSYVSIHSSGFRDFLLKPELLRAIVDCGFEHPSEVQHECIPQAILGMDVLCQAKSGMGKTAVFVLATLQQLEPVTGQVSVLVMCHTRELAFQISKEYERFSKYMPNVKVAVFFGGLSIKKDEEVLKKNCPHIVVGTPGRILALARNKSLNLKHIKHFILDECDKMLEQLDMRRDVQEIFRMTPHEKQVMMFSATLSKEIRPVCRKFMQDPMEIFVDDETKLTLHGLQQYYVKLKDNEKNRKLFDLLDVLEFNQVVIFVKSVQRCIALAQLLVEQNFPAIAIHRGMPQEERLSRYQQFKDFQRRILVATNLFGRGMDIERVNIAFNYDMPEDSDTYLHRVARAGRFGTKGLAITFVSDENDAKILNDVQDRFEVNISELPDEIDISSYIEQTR

The substance “UAP56 (from UniProt Q13838 1-428) (enzyme)” showed a time course (5, 10, 15 min) of R-loop dissociation by 60 nM UAP56 with 6 nM ALYREF-ΔNC; fold increase at 5 min in assay [1] of 12 fold. In assay [2], this substance returned a percent of the ability to interact with UAP56 lost, against WT ALYREF of 80%.
